# Changes are numbered by the printed parent chain. Names and notes keep the numbering of the source.
# B1: Aspartate-β-semialdehyde dehydrogenase from Candida albicans (enzyme)
# chain: MSVKKAGVLGATGSVGQRFILLLSKHPEFEIHALGASSRSAGKKYKDAASWKQTETLPETEQDIVVQECKPEGNFLECDVVFSGLDADVAGDIEKSFVEAGLAVVSNAKNYRREKDVPLVVPIVNPEHIDVVENKVKQAVSKGGKKPGFIICISNCSTAGLVAPLKPLVEKFGPIDALTTTTLQAISGAGFSPGVSGMDILDNIVPYISGEEDKLEWETKKILGGVNAEGTEFVPIPESEMKVSAQCNRVPVIDGHTECISLRFANRPAPSVEDVKQCLREYECAASKLGCHSAPKQTIHVLDQPDRPQPRLDRDRDSGYGVSVGRIREDSLLDFKMVVLSHNTIIGAAGAGILIAEILKAKNII
# notes: Aspartate-β-semialdehyde dehydrogenase of Candida albicans (fungal ASADH); The construct used for native PAGE is not described; also called caASADH; C. albicans ASADH
# B2: trASADH with mutation D196A (enzyme)
# chain: SKKRCGVLGATGAVGTRFILLLSQHPLLELVAVGASDRSSGKKYRDAVRWKQSAPMPAKVADLTVRCCDPAEFSDCDIIFSGLDPDAAGEIEMAFLKANFAVFSNAKNYRLDPMVPLVVPLVNAGHIDVIPAQRKHFGLDKGMLVCNSNCAVVGLVVPAKALIQKFGPIESVSMVTMQAVSGAGYPGVSSMAIFDNIVPYIPGEEGKISSEARKILGDLNSDLAGFSDQKPLQISVACNRVPVLDGHTVCASLRFVNRPPPTASQVREALREYKPEVQTLGCPSAPKMSIHVMDEVDRPQPRLDRETEGGYACTVGRIREDDSDVFDIQFVALSHNTVLGASGSSILNAESAILKGFV
# notes: Aspartate-β-semialdehyde dehydrogenase of Trichophyton rubrum BMU01672 (362 aa) with the point mutation D196A; parent as m1; source: E. coli B834(DE3) or Rosetta(DE3), purified (Ni-NTA, Hitrap Q, Superdex 200)
# B3: Aspartate-β-semialdehyde dehydrogenase from Trichophyton rubrum, wild type (enzyme)
# chain: B2 chain with A192D
# notes: Aspartate-β-semialdehyde dehydrogenase (ASADH) of Trichophyton rubrum BMU01672, wild type, 362 aa as printed; theoretical monomer 38.7 kDa; The apo crystal (4ZHS) was a selenomethionine derivative; Cloned in pET-28a; also called trASADH; ASADH; source: E. coli B834(DE3) or Rosetta(DE3), purified (Ni-NTA, Hitrap Q, Superdex 200)
# B4: trASADH with mutation F198A (enzyme)
# chain: B2 chain with A192D, F194A
# notes: Aspartate-β-semialdehyde dehydrogenase of Trichophyton rubrum BMU01672 (362 aa) with the point mutation F198A; parent as m1; also called trASADH-F198A; Mutant F198A; source: E. coli B834(DE3) or Rosetta(DE3), purified (Ni-NTA, Hitrap Q, Superdex 200)
# B5: trASADH with the triple mutation R309A-D196A-F198A (enzyme)
# chain: B2 chain with F194A, R305A
# notes: Aspartate-β-semialdehyde dehydrogenase of Trichophyton rubrum BMU01672 (362 aa) with R309A, D196A and F198A; parent as m1; also called trASADH R309A-D196A-F198A; dimeric triple mutant; source: E. coli B834(DE3) or Rosetta(DE3), purified (Ni-NTA, Hitrap Q, Superdex 200)
# B6: trASADH with mutation R309A (enzyme)
# chain: B2 chain with A192D, R305A
# notes: Aspartate-β-semialdehyde dehydrogenase of Trichophyton rubrum BMU01672 (362 aa) with the point mutation R309A; parent as m1; source: E. coli B834(DE3) or Rosetta(DE3), purified (Ni-NTA, Hitrap Q, Superdex 200)
# B7: trASADH with mutation Y189A (enzyme)
# chain: B2 chain with Y185A, A192D
# notes: Aspartate-β-semialdehyde dehydrogenase of Trichophyton rubrum BMU01672 (362 aa) with the point mutation Y189A; parent as m1; also called trASADH-Y189A; source: E. coli B834(DE3) or Rosetta(DE3), purified (Ni-NTA, Hitrap Q, Superdex 200)
# Legend:
# [1] = target: Aspartate-β-semialdehyde dehydrogenase from Streptococcus pneumoniae (Streptococcus pneumoniae); assay: native gel or EMSA; native PAGE (3-12%), migration against molecular weight standards
# [2] = target: Aspartate-β-semialdehyde dehydrogenase from Streptococcus pneumoniae (Streptococcus pneumoniae); assay: AUC; sedimentation velocity, 4 °C, 20 mM Tris pH 8.0, 100 mM NaCl, all proteins at OD280 = 0.85, 50,000 rpm, Sedfit
# [3] = target: T1, trASADH (T. rubrum aspartate-β-semialdehyde dehydrogenase) (Trichophyton rubrum, UniProt A0A080WMA9); assay: isothermal titration calorimetry; assay type: binding
# T1 construct: gene TERG_03598; full length 362 aa, N-terminal 6xHis tag (pET-28a), E. coli; homotetramer
# T1 sequence (A0A080WMA9 1-362): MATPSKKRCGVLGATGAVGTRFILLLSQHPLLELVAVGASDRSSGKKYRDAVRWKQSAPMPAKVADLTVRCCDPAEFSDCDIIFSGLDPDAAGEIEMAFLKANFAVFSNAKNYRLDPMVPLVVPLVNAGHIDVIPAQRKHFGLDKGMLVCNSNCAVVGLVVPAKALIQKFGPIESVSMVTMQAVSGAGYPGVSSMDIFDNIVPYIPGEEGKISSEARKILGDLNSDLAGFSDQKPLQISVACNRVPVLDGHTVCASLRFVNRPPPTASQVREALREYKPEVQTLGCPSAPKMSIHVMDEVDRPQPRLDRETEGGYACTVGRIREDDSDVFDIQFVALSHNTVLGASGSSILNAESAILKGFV
# [4] = target: Aspartate-β-semialdehyde dehydrogenase from Cryptococcus neoformans (C. neoformans); assay: native gel or EMSA; native PAGE (3-12%), migration against molecular weight standards
# [5] = target: Aspartate-β-semialdehyde dehydrogenase from Vibrio cholerae (V. cholerae); assay: as above
# [6] = target: Aspartate-β-semialdehyde dehydrogenase from Aspergillus fumigatus (A. fumigatus); assay: as above
# [7] = target: the molecule itself; assay: as above
# [8] = target: the molecule itself; assay: cell-based or functional assay
# [9] = target: the molecule itself; assay: SEC; Superose 6 PC3.2/30, 20 mM Tris-HCl pH 8.0, 100 mM NaCl, ~3 mg/ml, calibrated with mass standards (also the final Superdex 200 purification step)
# [10] = target: the molecule itself; assay: AUC; sedimentation velocity, 4 °C, 20 mM Tris pH 8.0, 100 mM NaCl, all proteins at OD280 = 0.85, 50,000 rpm, Sedfit
molecule,measurement,setting,value
Aspartate-β-semialdehyde dehydrogenase from Streptococcus pneumoniae (enzyme),stoichiometry N,[1],2
same,stoichiometry N,[2],2
NC(=O)c1ccc[n+]([C@@H]2O[C@H](COP(=O)(O)OP(=O)(O)OC[C@H]3O[C@@H](n4cnc5c(N)ncnc54)[C@H](OP(=O)(O)O)[C@@H]3O)[C@@H](O)[C@H]2O)c1 [NADP],Kd,[3],76.9 µM
Aspartate-β-semialdehyde dehydrogenase from Cryptococcus neoformans (enzyme),stoichiometry N,[4],4
Aspartate-β-semialdehyde dehydrogenase from Vibrio cholerae (enzyme),stoichiometry N,[5],2
Aspartate-β-semialdehyde dehydrogenase from Aspergillus fumigatus (enzyme),stoichiometry N,[6],4
B1,stoichiometry N,[7],4
B2,"enzymatic activity (kcat) at 25 °C, tetrameric single mutant",[8],15.9 s⁻¹
same,stoichiometry N,[9],4
B3,stoichiometry N,[10],4
B4,"enzymatic activity (kcat) at 25 °C, tetrameric single mutant",[8],15.7 s⁻¹
same,stoichiometry N,[10],4
B5,stoichiometry N,[10],2
B6,"enzymatic activity (kcat) at 25 °C, tetrameric single mutant",[8],12.9 s⁻¹
same,stoichiometry N,[9],4
B7,stoichiometry N,[10],4

# Source: paper PMC4751538, “Structural Insights into the Tetrameric State of Aspartate-β-semialdehyde Dehydrogenases from Fungal Species” (Scientific Reports, 2016)
